Data published in US11648277B2, “Combination therapy with gold controlled transgenes” (Chimera Bioengineering, Inc., priority 2019, dated 2023).

How the values were obtained:
[1] = system: T-cells; assay: Removal of microRNA binding sites from an RDE, expression from constructs; format: cell-based; conditions: MIR186 micro-RNA sites removed from the 3′-UTR of IL-2
Source text: The AU-rich element from the 3′-UTR of IL-2 has mir-181 and mir 186 microRNA binding sites. Different combinations of the microRNA sites were removed from the 3′-UTR of IL-2. When the MIR186 micro-RNA sites were removed from the 3′-UTR of IL-2 the dynamic range of expression from constructs with this UTR increased 50 fold. The modified IL-2, 3′-UTR replaces CTT in the sequence with GAA and is shown below (the new GAA is underlined in the sequence):
Different combinations of the micro-RNA sites were removed from the 3′UTR of IFNg and tested for increased expression. When the mir125 micro-RNA sites were removed from the 3′-UTR of IFN-γ the expression rate from constructs with this UTR is increased.
Expression of GFP in T-cells, transfected with the RDE-GFP plus the microRNA sites, is compared to expression of GFP in T-cells with the RDE-GFP in which the microRNA sites have been removed, following activation with CD3/CD28 beads for 24 hours. The removal of the microRNA sites increased expression of the GFP by a factor of between 2-5 after 24 hours, relative to the cells with microRNA sites.

[2] = system: CD4+ T-cells; assay: Luciferase-RDE bioluminescence in anti-CD19 CAR T-cells, resting vs Raji co-culture; format: cell-based; conditions: for increase in bioluminescence with CAR stimulation: Raji co-culture 24 h vs resting
Source text: Combinations of these inserts/cassettes shown in FIG. 3 were placed in the similar lenti virus constructs. The anti-CD19 CAR cassette and the insert with the luciferase-RDE are transcribed in opposite directions, and the control regions for each are located in between the two insert/cassettes. The control region for the Luciferase-RDE insert and Luciferase-3′-UTR were either a MinP promoter or an NFAT promoter. The control region of the anti-CD19 CAR cassette was the MND promoter, and CD4+ T-cells were transduced with the bicistronic construct.
The transduced T cells were allowed to return to resting state, and then were tested after stimulation as follows. For the ‘no stimulation’ set, transduced T-cells were incubated for 24 h alone in medium. For the ‘Raji co-culture’ set CD19+ Raji B cells were incubated with the transduced T cells for 24 h. At 24 h, the T cells were stained for CD25 and CD69, which are activation markers, and subject to flow cytometry to measure these markers and luciferase expression in the T cells.

B1: RDE3: 3′-UTR of IL-2 modified to remove the mir186 sites (SEQ ID NO: 22) (nucleic acid, listed as Homo sapiens)
DNA: TAATTAAGTGCTTCCCACTTAAAACATATCAGGCCTTCTATTTATTTAAATATTTAAATTTTATATTTATTGTTGAATGTATGGTTTGCTACCTATTGTAACTATTATTCTTAATCTTAAAACTATAAATATGGATCTTTTATGATTGAATTTGTAAGCCCTAGGGGCTCTAAAATGGTTTCACTTATTTATCCCAAAATATTTATTATTATGTTGAATGTTAAATATAGTATCTATGTAGATTGGTTAGTAAAACTATTTAATAAATTTGATAAATATAAA
[1]
  increase of dynamic range of expression: 50 fold
[2]; MinP promoter
  increase in bioluminescence with CAR stimulation: 1.4 fold
[2]; NFAT promoter
  increase in bioluminescence with CAR stimulation: 1.3 fold
[2]; with either promoter
  amount of bioluminescence, rank among RDE constructs: highest amount of bioluminescence
